assay: soluble on expression in E. coli; label from the status in PepcDB or PDB records

Sequence | soluble on expression in E. coli
MVENLKQLQERVAVSDGRAKADLVIKNGRIINVFSGEIMDGDIAIKNGYIAGIGSFPDAEKIIDAAGAFIAPGFIDAHVHVESAMVTPAEFARVLLPNGVTTIVTDPHEIANVAGEKGIEFMLEDAKGAPLDMFVMLPSSVPATEGEHNGETLHAEKLHPLYRHEKVIGLAEVMDFPSVAKGSDDILRKIIDAKKEGGRIDGHGAGLTSADLNNYLAVGIRTDHESTTAKEATDRLRAGMFVMLREGTVGRDLLQTIPAVSEKNSHRFCFCTDDKLINDLITEGSINYNIKLAIKNGIDPITAIQMATINAANCHNLPYLGAVAAGYQADIVFLTDIETVEISKVLKNGEVVVDNGVRNEAAFKQQAAVPFVSPPINHHVHLQDLALPLTKETCYVIGMQPNSLFTEKRIEQVTIQGGKFVPTVENDLLKMAVVERHHDTGCVGVGIVKGFGLTEGAIATTVAHDSHNIVAVGVSDEAMKAAIDHITQTGGGIAVVNGAGQVLHDLALPIAGLLSDKSYEEVENDLAGLLNAFKQISTANGFDPFLTLSFLTLPVIPELKLTDQGLFDFATFQIISNEVN | not soluble
MGSDKIHHHHHHMTLALGRLDSITLLLPDPELFLYSYVRREAVLSSQIEGTQSTLTQLMLFELEESPGVPFDDVVEVSNYVAALDHGVARLKEGFPLSNRLIREMHTVLLFRGRGSNKGPGEFRRSQNWIGGTRPGNALFVPPPPHLVPQCMADLERFLHDENNPYPSVLKAALAHVQFETIHPFLDGNGRIGRLLIAFILHHDGILSRPLLYLSLYFKRHRETYYRLLDRVRTEGDWEAWTDFFLEGVRETAGNAVDTARRLIALFEADQQKIQSLGRSASSTLQVFQAFKERPLLTVGRISERTGLSFPAANQAVGRMEKKLGIVREITGRRRERAYAYDQYVAILNEGAEE | not soluble
MHRSFPRLVRSQGNLLKGMFGKSGEKEAVKQLTLEEQESLRKTLPSIRARESTQVTASADSVTEFDDDLLTMSRIDTDAIRARGFLKYTQNYVPGVDVKNQVLEAASSCLRSAGVKSENVDQYKFVEGDNSVKFELLNRLGKSIEHWPTNGKLLHLETVADVVEFYQTPVKNVTKYTEMARDENKPKNVSIMEHAARFHPEDTHMYHGGITAFPGSGGEVLSLRQKRLLRQFQPKKEWFDYDDQTFDYTRPDKNMPWDPEVANQMDKYTDKRYNLKTKQFTRIRQ | not soluble
MFLGTYTPKLDDKGRLTLPAKFRDALAGGLMVTKSQDHSLAVYPRAAFEQLARRASKAPRSNPEARAFLRNLAAGTDEQHPDSQGRITLSADHRRYASLSKDCVVIGAVDYLEIWDAQAWQNYQQIHEENFSAASDEALGDIF | not soluble
GPGSMRCIGMMEELVAEGCSAIKSRHDKTNEELGDLRLQVHQEYLEAFRRLYKTLGQLVYKKEKRLEEIDRNIRTTHIQLEFAIETFDPNAKKHSDAKKELYKLRAQVEEELEMLKDKMAQALEMFGPTEDALNQAGIEFVHPAEEVEDGNLTRRSKMVEYRAHLAKQEEVKIAAEREELKRSKTLQSQQYRGKTVQQITQ | soluble
MGSDKIHHHHHHMPAVVVREYARLTTAPLPQNTLDAAHISPSAFSWLVKLGQQFKANGLQLLELDDQQWLRLDNYVGVLESPCGQVIEILPKHRVEGECINSARKLLRKLILNALQLKQRETEYTDIERFDAPLTEWLMAQFLTELDSVIKRGMRFDYQRIEESQRFLRGQLDVVKQLRQPAGREHIFNIRHDIFTADRAENRLLKTALLRVCKTTQDNDNWRLAHELQSLLHELPTSTDIQADFTTWRSDRLMAHYQAIKPWCEFVLSQHVPLAVQGLWQGISMLFPMERLFESYVAAELDAAVQRMLGVKGEVRTQLASKYLCKHQGKDFFQLQPDLQLKLGADHWILDTKWKLLDASDKENKYGLSQQDFYQLFAYGQTYLGGDGTLVLIYPAWHKFPAGTYLGEFRFNDKLTLKVLPFDLDAQNAAKDLISKLQQGVKQSLPS | not soluble
MKNIRNFSIIAHIDHGKSTLSDRIIQICGGLSDREMEAQVLDSMDLERERGITIKAQSVTLDYKASDGETYQLNFIDTPGHVDFSYEVSRSLAACEGALLVVDAGQGVEAQTLANCYTAMEMDLEVVPVLNKIDLPAADPERVAEEIEDIVGIDATDAVRCSAKTGVGVQDVLERLVRDIPPPEGDPEGPLQALIIDSWFDNYLGVVSLIRIKNGTLRKGDKVKVMSTGQTYNADRLGIFTPKQVDRTELKCGEVGWLVCAIKDIHGAPVGDTLTLARNPAEKALPGFKKVKPQVYAGLFPVSSDDYEAFRDALGKLSLNDASLFYEPESSSALGFGFRCGFLGLLHMEIIQERLEREYDLDLITTAPTVVYEVETTSREVIYVDSPSKLPAVNNIYELREPIAECHMLLPQAYLGNVITLCVEKRGVQTNMVYHGNQVALTYEIPMAEVVLDFFDRLKSTSRGYASLDYNFKRFQASDMVRVDVLINGERVDALALITHRDNSQNRGRELVEKMKDLIPRQQFDIAIQAAIGTHIIARSTVKQLRKNVLAKCYGGDISRKKKLLQKQKEGKKRMKQIGNVELPQEAFLAILHVGKDNK | soluble
MLIAQEQEQSSISLLAEVSRAVNNEEDISKVLRLVLFILSEHMNMLRGMVTILNRTTGEMVINESFGLTDEQRQLARYKVGEGIIGQVVKTGRPSVVPRINEEPLFLDRTQSRAEENKEELCFICVPIKVGREVIGTLSADRRISVPAENGDKKLWRKSDRIDVLQYYVDLLSIIAAMIAQAVRIKQLDDEKS | not soluble
MGSDKIHHHHHHMTWKSVNFDWNHIRAFLVTAEEGTLSAAAKALGLTQPTLSRQVSALETELCITLFERVGQRLVLTSSGLKLLEHARGMGDAALEFSLAVTGQSQKIEGSVIVSAGELTAAYMLPKIISKLRREEPGIDIEVVVTNEASDLKRREADIAIRSFHPTQNDLIAKKIGEEVIWLYGTPEYLDQLPTIPSFSELKDIQIIGFDRSNSLTDVLNKQGWQLSKKNFSLITSFQLLQLALCKEGQGVIFYPEQMGDQEPNLVRAYEHLGPVMKLPVWLVCHQELRTSLRVRRVFDFIATELSDNFY | not soluble
MNAPPAWAADILKKASSQALDLYNKGIGGNVYQGERIAGLGTMTKNALTGLEQAVGQYNNPALTQWFNAPTQSAHNLLGMAKGDWIGNNSKFNAALQSALSKTSDAINQSMAGAGRYGSGAHTGVLADELGALATNAAAQQYNQDIHNMMNANQMIDRSLYDQVNAANNYYQGQSNAQSNALKGGLIQDVNRQNALDAERQKWTEQDNQAWNQLERLLRVGTQAAGNYGTTSGKSTTMPSVTKDPLRDAQQVLGLMGGILGLCDVRAKENIVPVGEKNGYPLYVFNYKGDPQRYCGVLAQEVLRLKPEAVFVNAKTKLLHVDYNKIGLKMKKISEPKKRIATFFSALFARFPFLQKGYLLLEHHHHHH | soluble
MAAAGQEKGYLTQTAAALDKSPSLSPQLAAPIRGRPKKCLVYPHAPKSSRLSRSVLRWLQGLDLSFFPRDINRDFSNGFLIAEIFCIYYPWELELSSFENGTSLKVKLDNWAQLEKFLARKKFKLPKELIHGTIHCKAGVPEILIEEVYTLLTHREIKSIQDDFVNFTDYSYQMRLPLVSRSTVSKSIKDNIRLSELLSNPNMLTNELKAEFLILLHMLQRKLGRKLNPEWFDVKPTVGEVTLNHLPAQASGRRYNLKVKRGRVVPVLPNIGSGGSSHREIHVKQAGQHSYYSAMKPIRNMDKKP | soluble
MGNRLSKIATRTGDDGTTGLGDGSRVRKDDARIAAIGDVDELNSQIGVLLAEPLPDDVRAALSAIQHDLFDLGGELCIPGHAAITDAHLARLDGWLAHYNGQLPPLEEFILPGGARGAALAHVCRTVCRRAERSIVALGASEPLNAAPRRYVNRLSDLLFVLARVLNRAAGGADVLWDRTRAH | soluble
MGSDKIHHHHHHMQQPLAYRMRPKTLKDVVGQQQLVGPGKIIARMVKAKRLSSMILYGPPGTGKTSIASAIAGSTKYAFRMLNAATDSKKQLQIVAEEAKMSGTVILLLDEIHRLDKTKQDFLLPHLESGRIILIGATTENPYISINPAIRSRTQIFQVFPLTDDDIQHAVERALADEKNGLGSYHVDLAPAAMHHLCTATNGDLRSALNGLELAVLSSSPADDGTIAISQQTIEECLQKKALSADKDGDAHYDVISAFQKSIRGSDVNAALHYLARLVEAGDLKSIMRRLMVIAYEDIGLANPAACAHTVAAVQAADQLGFPEARIPLADAVIELALSPKSNSGISAIDAALTTVRDGHFGDIPADIKDAHYQGAAKLGHGVGYDFPHDHPGDWVAQQYLPDAIKSAKYYEPKTNGRYETALAQQYEKLLKANERNR | not soluble
MGSDKIHHHHHHMQFERISTEQKKLSLIQTFLHQNALKLDEQIEYFVVGYNDNEQIVVCGGLAGNIIKCVAIDESLRGSGVALQLITELVDLAYTLKRPHLFIYTKPEYATLFKSCGFYIISDANPYVVLLENSATRLQKQCSLWEKMRVDGNRIGSIVMNANPFTLGHRYLIEQALQQCDHLHLFIVGEDASQFSYTERFEMIQQGIFDLSNITLHSGSDYIISRATFPNYFLKDQLITDESYFEIDLKLFRLHIAQALGITHRFVGTELNCPVTAEYNRQMHYWLMDAEMNAPKINVIEIPRKTASNHIISASTVRKHLAEKNWAQLAEFVPMTTLNYLQKCGRF | not soluble
MGNFTFEEMNLMCIYNTGSRTGLIDSLREMRGELSPEETELRELTDSALTKLCAMTDEDFAQLELYPDFDQLEHHHHHH | soluble
MGSDKIHHHHHHMEHGTESFWTDIKRYEDILAKDPGSYCFAPLSELYRKVGLLDDAIMTARTGIGQHPEYVGGYMALGRACFEKGERTESRAALEKVVRVTPDNLLAQKLLSQIYVDAGESDLARRCLEIILSLSPGDLESKLMLDAMCRQPRENADRADDLFNEMGAAAAIDLEDESLLEEIEIIEELVDEVVDEEDLAAFTAHAPPPPLAEESFADVLLDEEPVANADVPSPRDVLSTGTVADLYIAQGFPKKALAIYRDLLDADPLNEDIRNRMVDLKKRIDEDEARARESVLAEAVSATDTTAQIQGDLTADREAFKEEAASGFAVESAHEVDIPLEVAVSAESSLNVAEEKEASAAHVVSALEGWLDSIRRIRQCRSVLH | not soluble
MLRSLSTISKSTVRCMSLTSKMAAEQPSKQEVDDLFAEKPQHHNPEQRRHAYSVNKVELVGGVALDPLYKTGRNGKPYLIFNIITNSYFKQQDGTTLDQTERHAVSVFGKQAEILSKTIKKGSRLMVQGRLHYSGGQKDEQGNRTQRNTYIIAQTVQPLARAARENPDQH | not soluble
MDADKDNIKQACDERSAEMDDMRGEQSMGLVHEIMSENKELDEEIKKLEAELQSDAREFQIKENVPEKKLKLTSVESPEDGCHFSNSSCSFQVSSQILYELQKGQALITFEKEEVAQNVISMGNHVVQMEGTPVKVSAHPVPLNTGVRFQVHVDISKMKINVTGIPDELSEEQTRDKLELSFCKSRNGGGEVESVDYDRKSRSAVITFVETGVVDKILKKKTYPLYMNQKCHSVAVSPCIERRLEKYQVFSAVSKKTVLLTGLEGIRVDEETGEDLLNIHFQRKNNGGGEVEVVKCSLDQSFAAYFKEEARETI | not soluble

Source: the DeepSol protein solubility set
